# Reference: IntAct's records for PubMed 24612608
# B1: Beta-secretase 1 (Homo sapiens), P56817 (parent)
# chain: MAQALPWLLLWMGAGVLPAHGTQHGIRLPLRSGLGGAPLGLRLPRETDEEPEEPGRRGSFVEMVDNLRGKSGQGYYVEMTVGSPPQTLNILVDTGSSNFAVGAAPHPFLHRYYQRQLSSTYRDLRKGVYVPYTQGKWEGELGTDLVSIPHGPNVTVRANIAAITESDKFFINGSNWEGILGLAYAEIARPDDSLEPFFDSLVKQTHVPNLFSLQLCGAGFPLNQSEVLASVGGSMIIGGIDHSLYTGSLWYTPIRREWYYEVIIVRVEINGQDLKMDCKEYNYDKSIVDSGTTNLRLPKKVFEAAVKSIKAASSTEKFPDGFWLGEQLVCWQAGTTPWNIFPVISLYLMGEVTNQSFRITILPQQYLRPVEDVATSQDDCYKFAISQSSTGTVMGAVIMEGFYVVFDRARKRIGFAVSACHVHDEFRTAAVEGPFVTLDMEDCGYNIPQTDESTLMTIAYVMAAICALFMLPLCLMVCQWRCLRCLRQQHDDFADDISLLK
# partner: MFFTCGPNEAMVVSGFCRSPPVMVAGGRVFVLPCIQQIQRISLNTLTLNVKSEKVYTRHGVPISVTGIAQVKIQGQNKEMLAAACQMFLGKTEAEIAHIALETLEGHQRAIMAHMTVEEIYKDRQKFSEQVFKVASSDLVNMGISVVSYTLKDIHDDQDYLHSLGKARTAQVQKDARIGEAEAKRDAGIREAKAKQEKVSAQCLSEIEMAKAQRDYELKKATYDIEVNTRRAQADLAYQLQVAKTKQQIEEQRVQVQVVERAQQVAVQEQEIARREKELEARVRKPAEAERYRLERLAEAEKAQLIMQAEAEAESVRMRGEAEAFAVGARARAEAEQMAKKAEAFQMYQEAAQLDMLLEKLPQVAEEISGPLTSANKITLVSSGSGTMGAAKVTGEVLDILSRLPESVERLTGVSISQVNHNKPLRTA
# Variants of: B1
# Settings: with flot1_rat Flot1, Q9Z1E1
row,Variant,effect of a mutation on the interaction
1,L499A;L500A,disrupting interaction
